The target in this assay is SARS COV-1 spike protein (SARS COV-1) (UniProt P59594). Briefly: cell-based or functional assay.

Chain of soluble 80R scFv (VH): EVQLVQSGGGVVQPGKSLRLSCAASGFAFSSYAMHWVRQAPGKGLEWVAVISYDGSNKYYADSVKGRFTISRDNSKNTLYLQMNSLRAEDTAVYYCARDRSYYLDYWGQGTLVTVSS
Chain of soluble 80R scFv (VL): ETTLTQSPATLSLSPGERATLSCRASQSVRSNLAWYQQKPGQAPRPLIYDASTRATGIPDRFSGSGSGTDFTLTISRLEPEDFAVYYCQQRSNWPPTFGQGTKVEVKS

In turn, soluble 80R scFv had an IC50, neutralization of SARS COV-1 by the soluble scFv of 7.43 nM.

The record behind these values is patent US20240254203A1.
